Consider 11 variants from FireProtDB (doi:10.1016/0003-9861(92)90047-z).

Sequences and labels used below:
B1: Tryptophan synthase alpha chain, P0A877 (parent)
chain: MERYESLFAQLKERKEGAFVPFVTLGDPGIEQSLKIIDTLIEAGADALELGIPFSDPLADGPTIQNATLRAFAAGVTPAQCFEMLALIRQKHPTIPIGLLMYANLVFNKGIDEFYAQCEKVGVDSVLVADVPVEESAPFRQAALRHNVAPIFICPPNADDDLLRQIASYGRGYTYLLSRAGVTGAENRAALPLNHLVAKLKEYNAAPPLQGFGISAPDQVKAAIDAGAAGAISGSAIVKIIEQHINEPEKMLAALKVFVQPMKAATRS

Variants of B1 are the subject of this series. Conditions: Escherichia coli (strain K12); pH 7.2; Thermal; DSC; Sodium phosphate 1 mM; reversible: yes; structure 1WQ5; whole UniProt chain shown.

One may read the Tm as the temperature at which the thermal transition is half complete. For MERYESLFAQLKERKEGAFVPFVTLGDPGIEQSLKIIDTLIEAGADALELGIPFSDPLADGPTIQNATLRAFAAGVTLAQCFEMLALIRQKHPTIPIGLLMYANLVFNKGIDEFYAQCEKVGVDSVLVADVPVEESAPFRQAALRHNVAPIFICPPNADDDLLRQIASYGRGYTYLLSRAGVTGAENRAALPLNHLVAKLKEYNAAPPLQGFGISAPDQVKAAIDAGAAGAISGSAIVKIIEQHINEPEKMLAALKVFVQPMKAATRS [P78L], the melting temperature (Tm) amounted to 61.4 °C and the “change of melting temperature, mutant - wild type (higher = more stable)” value (from here on “change of melting temperature, mutant”) came out at 1.9 °C.

Consider MERYEPLFAQLKERKEGAFVPFVTLGDPGIEQSLKIIDTLIEAGADALELGIPFSDPLADGPTIQNATLRAFAAGVTPAQCFEMLALIRQKHPTIPIGLLMYANLVFNKGIDEFYAQCEKVGVDSVLVADVPVEESAPFRQAALRHNVAPIFICPPNADDDLLRQIASYGRGYTYLLSRAGVTGAENRAALPLNHLVAKLKEYNAAPPLQGFGISAPDQVKAAIDAGAAGAISGSAIVKIIEQHINEPEKMLAALKVFVQPMKAATRS [S6P], for which the Tm amounted to 54.3 °C and the “change of melting temperature, mutant” value is -5.2 °C.

Consider MERYESLFAQLKERKEGAFVPSVTLGDPGIEQSLKIIDTLIEAGADALELGIPFSDPLADGPTIQNATLRAFAAGVTPAQCFEMLALIRQKHPTIPIGLLMYANLVFNKGIDEFYAQCEKVGVDSVLVADVPVEESAPFRQAALRHNVAPIFICPPNADDDLLRQIASYGRGYTYLLSRAGVTGAENRAALPLNHLVAKLKEYNAAPPLQGFGISAPDQVKAAIDAGAAGAISGSAIVKIIEQHINEPEKMLAALKVFVQPMKAATRS [F22S], for which the midpoint of thermal melting (Tm) amounted to 60.3 °C and the “change of melting temperature, mutant” value turned out to be 0.8 °C.

With MERYESLFAQLKERKEGAFVPFVTLGDPGIEQSLKIIDTLIEAGADALELGIPFSDPLAGGPTIQNATLRAFAAGVTPAQCFEMLALIRQKHPTIPIGLLMYANLVFNKGIDEFYAQCEKVGVDSVLVADVPVEESAPFRQAALRHNVAPIFICPPNADDDLLRQIASYGRGYTYLLSRAGVTGAENRAALPLNHLVAKLKEYNAAPPLQGFGISAPDQVKAAIDAGAAGAISGSAIVKIIEQHINEPEKMLAALKVFVQPMKAATRS [D60G], the midpoint of thermal melting (Tm) was found to be 56.9 °C and the “change of melting temperature, mutant” value is -2.6 °C.

As for MERYESLFAQLKERKEGAFVPFVTLGDPGIEQSLKIIDTLIEAGADALELGIPFSDPLADGPTIQNVTLRAFAAGVTPAQCFEMLALIRQKHPTIPIGLLMYANLVFNKGIDEFYAQCEKVGVDSVLVADVPVEESAPFRQAALRHNVAPIFICPPNADDDLLRQIASYGRGYTYLLSRAGVTGAENRAALPLNHLVAKLKEYNAAPPLQGFGISAPDQVKAAIDAGAAGAISGSAIVKIIEQHINEPEKMLAALKVFVQPMKAATRS [A67V], the midpoint of thermal melting (Tm) came out at 56.8 °C and the “change of melting temperature, mutant” value was -2.7 °C.

For MERYESLFAQLKERKEGAFVPFVTLGDPGIEQLLKIIDTLIEAGADALELGIPFSDPLADGPTIQNATLRAFAAGVTPAQCFEMLALIRQKHPTIPIGLLMYANLVFNKGIDEFYAQCEKVGVDSVLVADVPVEESAPFRQAALRHNVAPIFICPPNADDDLLRQIASYGRGYTYLLSRAGVTGAENRAALPLNHLVAKLKEYNAAPPLQGFGISAPDQVKAAIDAGAAGAISGSAIVKIIEQHINEPEKMLAALKVFVQPMKAATRS [S33L], the Tm was 51.9 °C and the “change of melting temperature, mutant” value is -7.6 °C.

For the variant MERYESLFAQLKERKEGAFVPFVTLGDPGIEQSLKIIDTLIEAGADALELGIPFSGPLADGPTIQNATLRAFAAGVTPAQCFEMLALIRQKHPTIPIGLLMYANLVFNKGIDEFYAQCEKVGVDSVLVADVPVEESAPFRQAALRHNVAPIFICPPNADDDLLRQIASYGRGYTYLLSRAGVTGAENRAALPLNHLVAKLKEYNAAPPLQGFGISAPDQVKAAIDAGAAGAISGSAIVKIIEQHINEPEKMLAALKVFVQPMKAATRS [D56G], the Tm is 57.5 °C and the “change of melting temperature, mutant” value was -2 °C.

As for MERYESLFAQLKERKEGAFVPFVTLGDPGIEQSLKIIDTLIEAGADALELGIPFSDPLADGQTIQNATLRAFAAGVTPAQCFEMLALIRQKHPTIPIGLLMYANLVFNKGIDEFYAQCEKVGVDSVLVADVPVEESAPFRQAALRHNVAPIFICPPNADDDLLRQIASYGRGYTYLLSRAGVTGAENRAALPLNHLVAKLKEYNAAPPLQGFGISAPDQVKAAIDAGAAGAISGSAIVKIIEQHINEPEKMLAALKVFVQPMKAATRS [P62Q], the melting temperature (Tm) turned out to be 58.9 °C and the “change of melting temperature, mutant” value was -0.6 °C.

In the case of MERYESLFAQLKERKEGAFVPFVTLGDPGIEQSLKIIDTLIEAGADALELGIPFSDPLADGPTIRNATLRAFAAGVTPAQCFEMLALIRQKHPTIPIGLLMYANLVFNKGIDEFYAQCEKVGVDSVLVADVPVEESAPFRQAALRHNVAPIFICPPNADDDLLRQIASYGRGYTYLLSRAGVTGAENRAALPLNHLVAKLKEYNAAPPLQGFGISAPDQVKAAIDAGAAGAISGSAIVKIIEQHINEPEKMLAALKVFVQPMKAATRS [Q65R], the Tm was 58.9 °C and the “change of melting temperature, mutant” value was -0.6 °C.

For MERYESLFAQLKERKEGAFVPFVTLGDLGIEQSLKIIDTLIEAGADALELGIPFSDPLADGPTIQNATLRAFAAGVTPAQCFEMLALIRQKHPTIPIGLLMYANLVFNKGIDEFYAQCEKVGVDSVLVADVPVEESAPFRQAALRHNVAPIFICPPNADDDLLRQIASYGRGYTYLLSRAGVTGAENRAALPLNHLVAKLKEYNAAPPLQGFGISAPDQVKAAIDAGAAGAISGSAIVKIIEQHINEPEKMLAALKVFVQPMKAATRS [P28L], the Tm worked out at 54.9 °C and the “change of melting temperature, mutant” value is -4.6 °C.

Regarding MERYESLFAQLKERKEGAFVPFVTLGDPGIEQSLKIIDTLIEAGADALELDIPFSDPLADGPTIQNATLRAFAAGVTPAQCFEMLALIRQKHPTIPIGLLMYANLVFNKGIDEFYAQCEKVGVDSVLVADVPVEESAPFRQAALRHNVAPIFICPPNADDDLLRQIASYGRGYTYLLSRAGVTGAENRAALPLNHLVAKLKEYNAAPPLQGFGISAPDQVKAAIDAGAAGAISGSAIVKIIEQHINEPEKMLAALKVFVQPMKAATRS [G51D], the midpoint of thermal melting (Tm) was found to be 55 °C and the “change of melting temperature, mutant” value is -4.5 °C.
